Tested on: CC(C)(COP(=O)(O)OP(=O)(O)OC[C@H]1O[C@@H](n2cnc3c(N)ncnc32)[C@H](O)[C@@H]1OP(=O)(O)O)[C@@H](O)C(=O)NCCC(=O)NCCSC(=O)CC(=O)O
Assay: purified protein
Conditions: sole substrate, 100 mM potassium phosphate, pH 8.0, 30 °C, 20-1000 μM malonyl-CoA

| Substance | Km (1 ng/μL enzyme, 5 min) | kcat (1 ng/μL enzyme, 5 min) | Km (2 ng/μL enzyme, 8 min) | kcat (2 ng/μL enzyme, 8 min) |
| --- | --- | --- | --- | --- |
| AaPYKS1 (Anisodus acutangulus) | 70.38 µM | 2.24 s⁻¹ | – | – |
| EnPKS1 (Erythroxylum novogranatense) | 112.90 µM | 1.89 s⁻¹ | – | – |
| EnPKS2 (Erythroxylum novogranatense) | – | – | 50.54 µM | 0.45 s⁻¹ |

Reference: publication PMC9411544, “Catalytic innovation underlies independent recruitment of polyketide synthases in cocaine and hyoscyamine biosynthesis” (Nature Communications, 2022)
